Assay results from publication PMC3810134, “Substrate and Inhibitor Specificity of the Type II p21-Activated Kinase, PAK6” (PLoS ONE, 2013).
Changes are numbered by the printed parent chain. Numbers in names are those of the source.

B1: full-length WT GFP-PAK6: full-length wild-type PAK6 fused to GFP, transfected in HEK293 cells (protein, UniProt Q9NQU5 1-681, looked up)
chain: MFRKKKKKRPEISAPQNFQHRVHTSFDPKEGKFVGLPPQWQNILDTLRRPKPVVDPSRITRVQLQPMKTVVRGSAMPVDGYISGLLNDIQKLSVISSNTLRGRSPTSRRRAQSLGLLGDEHWATDPDMYLQSPQSERTDPHGLYLSCNGGTPAGHKQMPWPEPQSPRVLPNGLAAKAQSLGPAEFQGASQRCLQLGACLQSSPPGASPPTGTNRHGMKAAKHGSEEARPQSCLVGSATGRPGGEGSPSPKTRESSLKRRLFRSMFLSTAATAPPSSSKPGPPPQSKPNSSFRPPQKDNPPSLVAKAQSLPSDQPVGTFSPLTTSDTSSPQKSLRTAPATGQLPGRSSPAGSPRTWHAQISTSNLYLPQDPTVAKGALAGEDTGVVTHEQFKAALRMVVDQGDPRLLLDSYVKIGEGSTGIVCLAREKHSGRQVAVKMMDLRKQQRRELLFNEVVIMRDYQHFNVVEMYKSYLVGEELWVLMEFLQGGALTDIVSQVRLNEEQIATVCEAVLQALAYLHAQGVIHRDIKSDSILLTLDGRVKLSDFGFCAQISKDVPKRKSLVGTPYWMAPEVISRSLYATEVDIWSLGIMVIEMVDGEPPYFSDSPVQAMKRLRDSPPPKLKNSHKVSPVLRDFLERMLVRDPQERATAQELLDHPFLLQTGLPECLVPLIQLYRKQTSTC
modifications: full-length GFP fusion
notes: full-length wild-type PAK6 fused to GFP, transfected in HEK293 cells
B2: P52L mutant: full-length GFP-PAK6 with melanoma-associated P52L mutation, transfected in HEK293 cells (protein, UniProt Q9NQU5 1-681, looked up, variant P52L)
chain: B1 chain with P52L
modifications: full-length GFP fusion
notes: full-length GFP-PAK6 with melanoma-associated P52L mutation, transfected in HEK293 cells

System: PACSIN1 phosphorylation (Ser343) in HEK293 cells
Experiment: Cell-based assay: phospho-PACSIN1 on co-transfection with PAK6 constructs in HEK293 cells
Settings: co-transfection with myc-PACSIN1, 24 h
Experimental: HEK293 cells were grown at 37°C with 5% CO2 in Dulbecco’s modified Eagle’s medium (DMEM) supplemented with 10% fetal bovine serum and penicillin/streptomycin. Cells were transfected with pCMV6-myc-PACSIN1 (kindly provided by J. Peterson) and pEGFP-C2, pEGFP-PAK6-WT, pEGFP-PAK6-P52L, pEGFP-PAK6-N (N-terminus, residues 1–382) or pEGFP-PAK6-CAT (catalytic domain, residues 383–674) using polyethylenimine (PEI, Polysciences Inc.). Twenty four hours later, cells were trypsinized, quenched with complete medium, washed with PBS and lysed in buffer containing 20 mM Tris (pH 8.0), 200 mM NaCl, 1 mM EDTA, 1% Triton X-100, Complete Protease Inhibitor Cocktail (Roche), and phosphatase inhibitors (1 mM Na3VO4, 10 mM NaF, 10 mM β-glycerol phosphate) for 10 minutes at 4°C. Samples were resolved by SDS-PAGE and were assessed by immunoblotting using the following antibodies: goat anti-GFP (1∶1000; Rockland), mouse anti-myc (9E10, 1∶1000; Santa Cruz Biotechnology), rabbit anti-phospho-PACSIN1 (1∶2000; gift of J. Peterson), mouse anti-vinculin (1∶10,000; Sigma), anti-goat or anti-rabbit IgG AlexaFluor680 (1∶5000, Invitrogen), anti-mouse IgG IRDye800 (1∶5000, Li-Cor). Bands visualized using a Li-Cor Oddysey imager and were quantified using ImageJ. A ratio of phospho-PACSIN1 to total PACSIN1 was calculated by dividing the total phospho-PACSIN1 signal by the myc signal.

Row | Molecule | phosphorylation of PACSIN1 at Ser343 compared to GFP alone or GFP-PAK6 N-terminus (phospho-PACSIN1 immunoblot) | phosphorylation of PACSIN1 compared to wild-type PAK6 (phospho-PACSIN1/total PACSIN1 (myc), n = 4, Student's t-test)
1 | B1 | increased phosphorylation of PACSIN1 at Ser343 | 
2 | B2 |  | significantly increased phosphorylation
